Reference: patent US20180037654A1 (ADURO BIOTECH HOLDINGS EUROPE B V, published 2018)
Positions count from the first letter of the chain named. Numbers in names are those of the source.

T1: Mou-Hum-CTLA-4 (mouse/human chimera)
T1 construct: Mouse residues on strand 1, 2, 5 and 6 and human residues on strand 3, 4, 7 and 8; transiently expressed on CHO-K1 cells; also called mouse-human variant; mouse-human exchange mutant
T1 chain: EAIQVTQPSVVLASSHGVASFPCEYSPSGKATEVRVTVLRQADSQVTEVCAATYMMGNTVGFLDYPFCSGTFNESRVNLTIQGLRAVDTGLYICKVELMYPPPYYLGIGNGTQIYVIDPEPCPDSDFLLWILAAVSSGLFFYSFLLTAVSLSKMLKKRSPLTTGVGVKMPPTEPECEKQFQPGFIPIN

B1: hCTLA4.27H1L1 (antibody, human IgG4 S228P, kappa, V domains shown)
VH: EVQLLQSGAVLARPGTSVKISCKASGYSFTTYWMNWVKQRPGQGLEWIGMIHPSDSETSLNQAFKDKAKLTAATSASIAYLEFSSLTNEDSAVYYCARMGRRNPYYFDYWGQGTLVTVSS
VL: DIQMTQSPSSLSASVGDRVTITCRPSENLYTNLAWYQQKPGKAPKLLLYGATNLADGVPSRFSGSGSGTDYTLTISSLQPEDFATYYCQHLWGTPFTFGQGTKLEIKR
notes: Humanized, human IgG4 (S228P) kappa; H1 read as hCTLA4.27VH1, L1 as hCTLA4.27VL1
B2: hCTLA4.27H6L2 (antibody, human IgG4 S228P, kappa, V domains shown)
VH: B1 VH with Q6E, A9P, V10E, A12V, T16S, Q43K, A68V, T87R
VL: B1 VL with L48I, D70E, Y71F, T72S, T74S, Q100G, L104V
notes: Humanized, human IgG4 (S228P) kappa; H6 read as hCTLA4.27VH6, L2 as hCTLA4.27VL2
B3: hCTLA4.27H2L2 (antibody, human IgG4 S228P, kappa, V domains shown)
VH: EVQLVQSGAVLVKPGASVKVSCKASGYSFTTYWMNWVRQRPGKGLEWIGMIHPSDSETSLNQAFKDKVTITADESTSTAYMQLSSLRSEDTAVYYCARMGRRNPYYFDYWGQGTTVTVSS
VL: B1 VL with L48I, D70E, Y71F, T72S, T74S, Q100G, L104V
notes: Humanized, human IgG4 (S228P) kappa; H2 read as hCTLA4.27VH2, L2 as hCTLA4.27VL2
B4: hCTLA4.27H3L1 (antibody, human IgG4 S228P, kappa, V domains shown)
VH: B3 VH with L11V, V12A, A16S, R40A, K43Q, I48M, K67R, E74K, Q82E, R87T
VL: B1 VL
notes: Humanized, human IgG4 (S228P) kappa; H3 read as hCTLA4.27VH3, L1 as hCTLA4.27VL1
B5: hCTLA4.27H2L5 (antibody, human IgG4 S228P, kappa, V domains shown)
VH: B3 VH
VL: B1 VL with S7A, P80A, Q100G
notes: Humanized, human IgG4 (S228P) kappa; H2 read as hCTLA4.27VH2, L5 as hCTLA4.27VL5
B6: hCTLA4.27H4L2 (antibody, human IgG4 S228P, kappa, V domains shown)
VH: EVQLVQSGAEVKKPGASVKVSCKASGYSFTTYWMNWVRQAPGQGLEWMGMIHPSDSETSLNQAFKDRVTMTRDTSTSTVYMELSSLRSEDTAVYYCARMGRRNPYYFDYWGQGTLVTVSS
VL: B1 VL with L48I, D70E, Y71F, T72S, T74S, Q100G, L104V
notes: Humanized, human IgG4 (S228P) kappa; H4 read as hCTLA4.27VH4, L2 as hCTLA4.27VL2
B7: hCTLA4.27H4L1 (antibody, human IgG4 S228P, kappa, V domains shown)
VH: B6 VH
VL: B1 VL
notes: Humanized, human IgG4 (S228P) kappa; H4 read as hCTLA4.27VH4, L1 as hCTLA4.27VL1
B8: hCTLA4.27H5L3 (antibody, human IgG4 S228P, kappa, V domains shown)
VH: B1 VH with S7A, Q43K, M99I
VL: B1 VL with R18T, P80S
notes: Humanized, human IgG4 (S228P) kappa; H5 read as hCTLA4.27VH5, L3 as hCTLA4.27VL3
B9: hCTLA4.27H3L3 (antibody, human IgG4 S228P, kappa, V domains shown)
VH: B6 VH with E10V, K12A, A16S, M70I, R72A, T74K, V79A, R87T, L115T
VL: B1 VL with R18T, P80S
notes: Humanized, human IgG4 (S228P) kappa; H3 read as hCTLA4.27VH3, L3 as hCTLA4.27VL3
B10: hCTLA4.27H6L1 (antibody, human IgG4 S228P, kappa, V domains shown)
VH: B1 VH with Q6E, A9P, V10E, A12V, T16S, Q43K, A68V, T87R
VL: B1 VL
notes: Humanized, human IgG4 (S228P) kappa; H6 read as hCTLA4.27VH6, L1 as hCTLA4.27VL1
B11: hCTLA4.27H1L3 (antibody, human IgG4 S228P, kappa, V domains shown)
VH: B1 VH
VL: B1 VL with R18T, P80S
notes: Humanized, human IgG4 (S228P) kappa; H1 read as hCTLA4.27VH1, L3 as hCTLA4.27VL3
B12: hCTLA4.27H6L3 (antibody, human IgG4 S228P, kappa, V domains shown)
VH: B1 VH with Q6E, A9P, V10E, A12V, T16S, Q43K, A68V, T87R
VL: B1 VL with R18T, P80S
notes: Humanized, human IgG4 (S228P) kappa; H6 read as hCTLA4.27VH6, L3 as hCTLA4.27VL3
B13: hCTLA4.27H4L5 (antibody, human IgG4 S228P, kappa, V domains shown)
VH: B6 VH
VL: B1 VL with S7A, P80A, Q100G
notes: Humanized, human IgG4 (S228P) kappa; H4 read as hCTLA4.27VH4, L5 as hCTLA4.27VL5
B14: hCTLA4.27H3L2 (antibody, human IgG4 S228P, kappa, V domains shown)
VH: B6 VH with E10V, K12A, A16S, M70I, R72A, T74K, V79A, R87T, L115T
VL: B1 VL with L48I, D70E, Y71F, T72S, T74S, Q100G, L104V
notes: Humanized, human IgG4 (S228P) kappa; H3 read as hCTLA4.27VH3, L2 as hCTLA4.27VL2
B15: hCTLA4.27H3L5 (antibody, human IgG4 S228P, kappa, V domains shown)
VH: B6 VH with E10V, K12A, A16S, M70I, R72A, T74K, V79A, R87T, L115T
VL: B1 VL with S7A, P80A, Q100G
notes: Humanized, human IgG4 (S228P) kappa; H3 read as hCTLA4.27VH3, L5 as hCTLA4.27VL5
B16: hCTLA4.27H6L5 (antibody, human IgG4 S228P, kappa, V domains shown)
VH: B1 VH with Q6E, A9P, V10E, A12V, T16S, Q43K, A68V, T87R
VL: B1 VL with S7A, P80A, Q100G
notes: Humanized, human IgG4 (S228P) kappa; H6 read as hCTLA4.27VH6, L5 as hCTLA4.27VL5
B17: hCTLA4.27H5L2 (antibody, human IgG4 S228P, kappa, V domains shown)
VH: B1 VH with S7A, Q43K, M99I
VL: B1 VL with L48I, D70E, Y71F, T72S, T74S, Q100G, L104V
notes: Humanized, human IgG4 (S228P) kappa; H5 read as hCTLA4.27VH5, L2 as hCTLA4.27VL2
B18: hCTLA4.27H5L5 (antibody, human IgG4 S228P, kappa, V domains shown)
VH: B1 VH with S7A, Q43K, M99I
VL: B1 VL with S7A, P80A, Q100G
notes: Humanized, human IgG4 (S228P) kappa; H5 read as hCTLA4.27VH5, L5 as hCTLA4.27VL5
B19: hCTLA4.27H1L5 (antibody, human IgG4 S228P, kappa, V domains shown)
VH: B1 VH
VL: B1 VL with S7A, P80A, Q100G
notes: Humanized, human IgG4 (S228P) kappa; H1 read as hCTLA4.27VH1, L5 as hCTLA4.27VL5
B20: hCTLA4.27H5L1 (antibody, human IgG4 S228P, kappa, V domains shown)
VH: B1 VH with S7A, Q43K, M99I
VL: B1 VL
notes: Humanized, human IgG4 (S228P) kappa; H5 read as hCTLA4.27VH5, L1 as hCTLA4.27VL1
B21: hCTLA4.27H2L1 (antibody, human IgG4 S228P, kappa, V domains shown)
VH: B3 VH
VL: B1 VL
notes: Humanized, human IgG4 (S228P) kappa; H2 read as hCTLA4.27VH2, L1 as hCTLA4.27VL1
B22: hCTLA4.27H4L3 (antibody, human IgG4 S228P, kappa, V domains shown)
VH: B6 VH
VL: B1 VL with R18T, P80S
notes: Humanized, human IgG4 (S228P) kappa; H4 read as hCTLA4.27VH4, L3 as hCTLA4.27VL3
B23: hCTLA4.27H2L3 (antibody, human IgG4 S228P, kappa, V domains shown)
VH: B3 VH
VL: B1 VL with R18T, P80S
notes: Humanized, human IgG4 (S228P) kappa; H2 read as hCTLA4.27VH2, L3 as hCTLA4.27VL3
B24: hCTLA4.27H1L2 (antibody, human IgG4 S228P, kappa, V domains shown)
VH: B1 VH
VL: B1 VL with L48I, D70E, Y71F, T72S, T74S, Q100G, L104V
notes: Humanized, human IgG4 (S228P) kappa; H1 read as hCTLA4.27VH1, L2 as hCTLA4.27VL2
B25: 10D1 (antibody, V domains shown)
VH: QVQLVESGGGVVQPGRSLRLSCAASGFTFSSYTMHWVRQAPGKGLEWVTFISYDGNNKYYADSVKGRFTISRDNSKNTLYLQMNSLRAEDTAIYYCARTGWLGPFDYWGQGTLVTVSS
VL: not shown

These binders were tested against T2, human CTLA-4 (Y166G and Y183G) expressed on CHO-K1.hCTLA-4 cells (human, UniProt P16410 36-223) (assay: CELISA on CHO-K1.hCTLA-4 cells).
Protocol: Binding of the humanized antibodies to hCTLA-4 was studied in CELISA format. CHO-K1.hCTLA-4 cells were seeded in culture medium (DMEM-F12 (Gibco) with 10% Fetal Bovine Serum (Hyclone) and Pen/Strep (Gibco)) in tissue culture plates and cultured at 37° C., 5% CO₂ and 95% humidity until they were confluent. Subsequently, culture medium was removed and cells were incubated for 1 hour at 37° C., 5% CO₂ and 95% humidity with purified hCTLA-4 antibodies (10 μg/ml and dilutions thereof). Next, cells were washed with PBS/0.05% Tween (PBST) and incubated for 1 hour at 37° C., 5% CO₂ and 95% humidity with goat-anti-human IgG-HRP (Southern Biotechnology) or goat-anti-mouse IgG-HRP (Southern Biotechnology). Subsequently, cells were washed 3 times with PBST and anti-hCTLA-4 immunoreactivity was visualized with TMB Stabilized Chromagen (Invitrogen). Reactions were stopped with 0.5 M H₂SO₄ and absorbances were read at 450 and 610 nm.

T2 sequence (P16410 36-223 Y201G/Y218G limits assumed): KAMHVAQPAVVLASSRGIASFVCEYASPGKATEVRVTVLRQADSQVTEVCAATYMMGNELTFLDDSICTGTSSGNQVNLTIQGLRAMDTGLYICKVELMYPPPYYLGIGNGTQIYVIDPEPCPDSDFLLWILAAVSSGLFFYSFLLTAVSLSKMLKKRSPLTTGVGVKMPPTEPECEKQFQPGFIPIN

Binder | EC50 [nM]
B1 | 0.037
B2 | 0.027
B3 | 0.044
B4 | 0.07
B5 | 0.045
B6 | 0.047
B7 | 0.07
B8 | 0.042
B9 | 0.101
B10 | 0.044
B11 | 0.045
B12 | 0.028
B13 | 0.061
B14 | 0.065
B15 | 0.082
B16 | 0.036
B17 | 0.042
B18 | 0.035
B19 | 0.046
B20 | 0.029
B21 | 0.042
B22 | 0.051
B23 | 0.051
B24 | 0.04

The binders below were run against T2, human CTLA-4 (Y166G and Y183G) … (assay: CELISA, blockade of biotinylated hCD80/Fc binding to CHO-K1.hCTLA-4 cells).
Protocol: CHO-K1.hCTLA-4 cells were seeded in tissue culture plates and incubated at 37° C., 5% CO₂ and 95% humidity in culture medium. Once the cells were confluent culture medium was removed and cells were incubated for 1 hour with the humanized hCTL4.27 antibody variants (10 μg/ml and dilutions thereof) at 37° C., 5% CO₂ and 95% humidity. […] Cells were then washed with PBST followed by addition of Streptavidin-HRP conjugate on the cells, which was incubated for 1 hour at 37° C., 5% CO₂ and 95% humidity. […] Reactions were stopped with 0.5 M H₂SO₄ and absorbances were read at 450 and 610 nm. […] IC50 values represent the concentration at which half of the inhibition is observed.

Binder | IC50 [nM]
B1 | 2.55
B2 | 1.8
B3 | 2.59
B4 | 2.52
B5 | 2.72
B6 | 2.52
B7 | 3.33
B8 | 2.57
B9 | 3.37
B10 | 2.06
B11 | 3.13
B12 | 1.82
B13 | 3.08
B14 | 2.06
B15 | 3.67
B16 | 2.57
B17 | 10.3
B18 | 1.91
B19 | 3.44
B20 | 5.39
B21 | 2.98
B22 | 3.26
B23 | 2.97
B24 | 2.72

Target: T1, Mou-Hum-CTLA-4
Assay: CELISA on CHO-K1 cells transiently transfected with Mou-Hum-CTLA-4, panel Mouse/Human
Protocol: The cDNAs encoding these constructs (SEQ ID NO: 41 and 43, respectively) were synthesized and subcloned into the pCI-Neo vector (GeneArt). […] To this end CHO-K1 cells were transiently transfected, using Lipofectamine 2000 (Invitrogen), with the pCI-Neo vectors expressing human CTLA-4 (hCTLA-4), mouse CTLA-4 (mCTLA-4) (SEQ ID NO: 45), Hum-Mou-CTLA-4, and Mou-Hum-CTLA-4 respectively. The transfected cells were cultured at 37° C., 5% CO₂ and 95% humidity in medium (DMEM-F12 (Gibco) with 5% New Born Calf serum (Biowest) and Pen/Strep (Gibco)) until confluent. Subsequently, cells were trypsinized and seeded in tissue culture plates and cultured at 37° C., 5% CO₂ and 95% humidity in culture medium until confluent. Then, culture medium was removed and cells were incubated for 1 hour at 37° C., 5% CO₂ and 95% humidity with hCTLA-4 antibodies. Next, cells were washed with PBS/0.05% Tween (PBST) and incubated for 1 hour at 37° C., 5% CO₂ and 95% humidity with 1:2,000 goat-anti-human IgG-HRP (Jackson Immunoresearch). After that, cells were washed 3 times with PBST and anti-CTLA-4 immunoreactivity was visualized with TMB Stabilized Chromagen (Invitrogen).

Binder | EC50 (read off the curve) [nM]
B25 | ~0.07
